Consider one protein from doi:10.1101/2022.08.30.505785 (bioRxiv, 2022).

This data set deals with the molecule itself. In words: SAXS.

B1: Oxalyl-CoA synthetase from Saccharomyces cerevisiae, K352D variant (enzyme, S. cerevisiae, UniProt P38137 1-543, looked up)
chain: MTSAATVTASFNDTFSVSDNVAVIVPETDTQVTYRDLSHMVGHFQTMFTNPNSPLYGAVFRQDTVAISMRNGLEFIVAFLGATMDAKIGAPLNPNYKEKEFNFYLNDLKSKAICVPKGTTKLQSSEILKSASTFGCFIVELAFDATRFRVEYDIYSPEDNYKRVIYRSLNNAKFVNTNPVKFPGFARSSDVALILHTSGTTSTPKTVPLLHLNIVRSTLNIANTYKLTPLDRSYVVMPLFHVHGLIGVLLSTFRTQGSVVVPDGFHPKLFWDQFVKYNCNWFSCVPTISMIMLNMPKPNPFPHIRFIRSCSSALAPATFHKLEKEFNAPVLEAYAMTEASHQMTSNNLPPGDRKPGTVGQPQGVTVVILDDNDNVLPPGKVGEVSIRGENVTLGYANNPKANKENFTKRENYFRTGDQGYFDPEGFLVLTGRIKELINRGGEKISPIELDGIMLSHPKIDEAVAFGVPDDMYGQVVQAAIVLKKGEKMTYEELVNFLKKHLASFKIPTKVYFVDKLPKTATGKIQRRVIAETFAKSSRNKSKL
For orientation: stoichiometry N means the number of molecules, sites or subunits per partner or assembly. Take B1: the “stoichiometry N” value amounted to 2.
